Reference: patent publication US20100015644A1

Assays:
[1] = molecular target: CD4 on CD4+ T cells (human) (UniProt P01730); assay: cell-based or functional assay
[2] = molecular target: FcγRIIIaECD176VHis (HEK-293F, prepared as in Example 4) (human) (UniProt P08637); assay: ELISA, plate-bound FcγRIIIa176V; relative potency from EC50
[3] = molecular target: sCD4 (UniProt P01730); assay: ELISA, plate-bound sCD4 2.0 µg/ml; relative potency from EC50
[4] = molecular target: Fc receptor on NK cells (effector cells of the ADCC assay) (human) (UniProt P08637); assay: cell-based or functional assay
[5] = molecular target: FcγRIIIaECD176VHis (HEK-293F, prepared as in Example 4) (human) (UniProt P08637); assay: AlphaScreen bridging assay: His-tagged FcγRIIIa176V on Ni-acceptor beads and sCD4-biotine on SA-donor beads; signal needs binding to both
[6] = molecular target: FcγRIIIaECD176VHis batch 646-005-EP (CHO-K1SV derived) (human) (UniProt P08637); assay: ELISA; FcγRIIIa176V directly coated or captured by anti-polyhistidine mAb
Chain of FcγRIIIaECD176VHis batch 646-005-EP (CHO-K1SV derived) (human) (P08637 other isoform, or with tags, fused parts or gaps limits assumed): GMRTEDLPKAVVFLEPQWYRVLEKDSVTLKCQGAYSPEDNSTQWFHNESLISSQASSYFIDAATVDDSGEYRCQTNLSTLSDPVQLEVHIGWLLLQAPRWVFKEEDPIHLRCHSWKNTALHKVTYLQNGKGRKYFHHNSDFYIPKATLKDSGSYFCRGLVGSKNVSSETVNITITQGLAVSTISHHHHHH

Chain of Fc receptor on NK cells (effector cells of the ADCC assay) (human) (P08637 17-254): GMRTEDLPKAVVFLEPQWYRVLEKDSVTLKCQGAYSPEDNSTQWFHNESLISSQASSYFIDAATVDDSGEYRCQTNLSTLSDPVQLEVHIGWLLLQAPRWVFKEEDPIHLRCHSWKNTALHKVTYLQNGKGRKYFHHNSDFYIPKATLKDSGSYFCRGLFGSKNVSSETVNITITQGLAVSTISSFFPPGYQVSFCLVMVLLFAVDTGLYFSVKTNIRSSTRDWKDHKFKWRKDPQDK
Chain of FcγRIIIaECD176VHis (HEK-293F, prepared as in Example 4) (human) (P08637 other isoform, or with tags, fused parts or gaps limits assumed): as the sequence (P08637 other isoform, or with tags, fused parts or gaps limits assumed) above

Substance | relative potency (FcγRIIIa176V binding), Exp 1 (relative to MRS-CD4-001) [2] | relative potency (FcγRIIIa176V binding), Exp 2 (relative to MRS-CD4-001) [2] | relative potency (FcγRIIIa176V binding), mean (relative to MRS-CD4-001) [2] | relative potency (sCD4 binding), Exp 1 (relative to MRS-CD4-001) [3] | relative potency (sCD4 binding), Exp 2 (relative to MRS-CD4-001) [3] | relative potency (sCD4 binding), mean (relative to MRS-CD4-001) [3] | Relative potency (ADCC), Exp 1 (relative to MRS-CD4-001) [4] | Relative potency (ADCC), Exp 2 (relative to MRS-CD4-001) [4] | Relative potency (ADCC), Exp (third) (relative to MRS-CD4-001) [4] | Relative potency (ADCC), mean (relative to MRS-CD4-001) [4] | binding capacity (% of the reference batch) (% of reference batch MRS-CD4-001) [5] | other results
zanolimumab (batch not stated) (antibody) | – | – | – | – | – | – | – | – | – | – | – | reduction of the level of CD4 expression after 18-24 h (flow cytometry with non-competing anti-CD4) [1]: 50 to 80%
zanolimumab mixed batch M50-GMP#3-CD4 (antibody) | 0.5 | 0.6 | 0.55 | 1.03 | 0.9 | 0.97 | 0.14 | 0.64 | 0.39 | 0.39 | – | relative potency (FcγRIIIa176V binding), related to parent batch GMP#3 (relative to GMP#3) [2]: 0.49; Relative potency (ADCC), relative to batch GMP#3 (relative to GMP#3) [4]: 0.31
zanolimumab batch MOCK-MRS-CD4 (sham-deglycosylated) (antibody) | – | – | – | – | – | – | – | – | – | – | 81 | –
zanolimumab batch BO118 (antibody) | – | – | – | – | – | – | – | – | – | – | 88 | –
zanolimumab mixed batch M50-MRS-CD4 (antibody) | – | – | – | – | – | – | – | – | – | – | 53 | –
zanolimumab batch BN078 (antibody) | – | – | – | – | – | – | – | – | – | – | 89 | –
zanolimumab batch MOCK-GMP#3-CD4 (sham-de-glycosylated) (antibody) | 1.23 | 1.23 | 1.23 | 0.98 | 0.85 | 0.92 | 1.38 | 1.55 | 1.42 | 1.45 | – | relative potency (FcγRIIIa176V binding), related to parent batch GMP#3 (relative to GMP#3) [2]: 1.09; Relative potency (ADCC), relative to batch GMP#3 (relative to GMP#3) [4]: 1.17
zanolimumab batch GMP#3 (antibody) | 1.12 | 1.12 | 1.12 | 0.91 | 0.92 | 0.92 | 0.98 | 1.3 | 1.45 | 1.24 | – | relative potency (FcγRIIIa176V binding), related to parent batch GMP#3 (relative to GMP#3) [2]: 1; Relative potency (ADCC), relative to batch GMP#3 (relative to GMP#3) [4]: 1
zanolimumab batch UNG-GMP#3-CD4 (de-glycosylated) (antibody) | – | – | – | 0.96 | 1.01 | 0.99 | – | – | – | – | – | –
zanolimumab batch MRS-CD4-001 (antibody) | 1 | 1 | 1 | 1 | 1 | 1 | 1 | 1 | 1 | 1 | – | –
zanolimumab mixed batch M90-MRS-CD4 (antibody) | – | – | – | – | – | – | – | – | – | – | 75 | relative potency (relative to MRS-CD4-001) [2]: 0.7
zanolimumab batch MEV005 (antibody) | – | – | – | – | – | – | – | – | – | – | 84 | –
HuMax-EGFr (antibody) | – | – | – | – | – | – | – | – | – | – | – | EC50 ratio of the two HuMax-EGFr batches [6]: 2
